Experimental data published in patent US6635429B1, “Heterodimeric nuclear receptors proteins, genes encoding same, and usage thereof” (Institut National de la Sante et de la Recherche Medicale, priority 1992, dated 2003).

Target: T1, hRAR-γ binding to β-RARE (Homo sapiens, UniProt P13631)
T1 construct: fused to the amino terminal amino acid of full length hRAR-γ; 14 amino acids from the parental vector pEt3a (bacterially expressed preparation only) (N); made in house; host or cells: E. coli BL21 (DE3) plysS; also rVV-infected HeLa cells, rBV-infected Sf9 cells, yeast (ubiquitin fusion) and rabbit reticulocyte lysate
T1 sequence (P13631 1-454): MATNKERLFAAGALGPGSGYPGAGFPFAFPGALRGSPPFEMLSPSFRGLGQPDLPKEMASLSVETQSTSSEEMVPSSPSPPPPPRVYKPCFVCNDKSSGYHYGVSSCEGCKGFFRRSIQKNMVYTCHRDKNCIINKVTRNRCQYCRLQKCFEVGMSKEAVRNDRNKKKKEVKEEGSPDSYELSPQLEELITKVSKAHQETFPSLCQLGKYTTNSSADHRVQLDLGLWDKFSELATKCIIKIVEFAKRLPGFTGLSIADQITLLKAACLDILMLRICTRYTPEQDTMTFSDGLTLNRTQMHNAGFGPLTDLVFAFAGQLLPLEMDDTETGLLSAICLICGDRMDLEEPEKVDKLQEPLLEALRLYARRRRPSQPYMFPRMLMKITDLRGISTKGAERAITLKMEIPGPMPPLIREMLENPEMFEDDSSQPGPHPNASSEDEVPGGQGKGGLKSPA
T1 sequence (P28702 1-533 partner): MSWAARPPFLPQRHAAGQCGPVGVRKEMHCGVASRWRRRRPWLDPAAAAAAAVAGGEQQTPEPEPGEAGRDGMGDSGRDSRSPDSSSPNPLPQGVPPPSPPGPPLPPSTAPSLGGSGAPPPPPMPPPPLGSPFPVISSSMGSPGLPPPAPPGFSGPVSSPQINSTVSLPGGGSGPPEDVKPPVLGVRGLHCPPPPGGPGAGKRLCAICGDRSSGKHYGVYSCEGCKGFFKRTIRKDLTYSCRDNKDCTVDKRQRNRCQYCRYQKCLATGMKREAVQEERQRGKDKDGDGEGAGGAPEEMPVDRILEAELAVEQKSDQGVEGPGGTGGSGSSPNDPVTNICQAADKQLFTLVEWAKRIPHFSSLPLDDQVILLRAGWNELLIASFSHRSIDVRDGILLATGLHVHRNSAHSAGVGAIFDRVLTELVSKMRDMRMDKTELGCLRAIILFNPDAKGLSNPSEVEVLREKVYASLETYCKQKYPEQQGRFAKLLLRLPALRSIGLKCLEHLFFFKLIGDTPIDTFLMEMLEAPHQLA
Assay: Gel retardation assay of RAR binding to β-RARE (RBF complementation)
Settings: RBF activity, complementation gel retardation with bacterially-expressed hRAR-γ
Experimental: For gel retardation experiments comparing RAR and RXR subtypes and deletion mutants, all proteins were produced by in vitro translation in the presence of [^35S]methionine.
Purification of rVV- and rBV-expressed hRAR-γ is being described elsewhere (Chen et al., manuscript in preparation). […] All steps were carried out at 4° C. and RBF activity was monitored through all purification steps by a complementation gel retardation assay using bacterially-expressed hRAR-γ as described above. […] The column was washed with equilibration buffer until the A280 of the eluent returned to baseline. […] The column was washed with equilibration buffer until the A280 of the eluent returned to baseline and then with 4 column volumes of buffer A containing 0.45 M ammonium sulfate and 50 mM KCl. The column was then eluted with an 18 ml linear gradient from 0.45 to 0 M ammonium sulfate in buffer A containing 50 mM KCl.

B1: HAP-TSK: hydroxylapatite column-purified HeLa cell RBF, apparently homogeneous ~64 kDa polypeptide, predominantly hRXR-β (protein, UniProt P28702 1-533, looked up)
Retinoic acid receptor …: T1 sequence (P28702 1-533 partner)
Specific Activity: 7,750,000 cpm/μg
